Measurements: article PMC10087753 (The Febs Journal, 2022)
Each block holds one molecule with its values, some of them ahead of it.

How the values were obtained:
[1] = biological target: T1, TrCel7A (Trichoderma reesei, UniProt P62694); test: inhibition of pNPL hydrolysis, absorbance of pNP at […] nm; assay type: biochemical; conditions: read-out: K i for lactose (μM) ^b; pNPL as substrate, 0.2 mM lactose; competitive; 10 mM sodium acetate, pH 5.0, 20 °C
T1 sequence (P62694 18-513): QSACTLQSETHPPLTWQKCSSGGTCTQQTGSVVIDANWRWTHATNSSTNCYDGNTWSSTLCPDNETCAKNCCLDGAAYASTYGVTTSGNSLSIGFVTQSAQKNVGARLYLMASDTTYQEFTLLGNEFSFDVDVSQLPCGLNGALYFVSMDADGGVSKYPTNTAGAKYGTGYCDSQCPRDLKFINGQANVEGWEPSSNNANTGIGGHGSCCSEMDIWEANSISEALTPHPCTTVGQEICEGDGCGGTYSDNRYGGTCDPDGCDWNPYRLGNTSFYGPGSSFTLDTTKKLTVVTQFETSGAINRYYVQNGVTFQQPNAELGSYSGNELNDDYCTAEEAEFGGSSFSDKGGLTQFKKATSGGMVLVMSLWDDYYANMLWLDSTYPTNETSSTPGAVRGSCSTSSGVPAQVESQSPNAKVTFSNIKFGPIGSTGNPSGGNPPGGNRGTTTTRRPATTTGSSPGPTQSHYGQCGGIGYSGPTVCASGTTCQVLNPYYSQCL

[2] = biological target: T2, PcCel7D (Phanerodontia chrysosporium, UniProt Q7LIJ0); test: as above; assay type: biochemical; conditions: read-out: K i for lactose (μM) ^b; pNPL as substrate, 0.2 mM lactose; competitive; 10 mM sodium acetate, pH 5.0, 20 °C
T2 sequence (Q7LIJ0 19-510): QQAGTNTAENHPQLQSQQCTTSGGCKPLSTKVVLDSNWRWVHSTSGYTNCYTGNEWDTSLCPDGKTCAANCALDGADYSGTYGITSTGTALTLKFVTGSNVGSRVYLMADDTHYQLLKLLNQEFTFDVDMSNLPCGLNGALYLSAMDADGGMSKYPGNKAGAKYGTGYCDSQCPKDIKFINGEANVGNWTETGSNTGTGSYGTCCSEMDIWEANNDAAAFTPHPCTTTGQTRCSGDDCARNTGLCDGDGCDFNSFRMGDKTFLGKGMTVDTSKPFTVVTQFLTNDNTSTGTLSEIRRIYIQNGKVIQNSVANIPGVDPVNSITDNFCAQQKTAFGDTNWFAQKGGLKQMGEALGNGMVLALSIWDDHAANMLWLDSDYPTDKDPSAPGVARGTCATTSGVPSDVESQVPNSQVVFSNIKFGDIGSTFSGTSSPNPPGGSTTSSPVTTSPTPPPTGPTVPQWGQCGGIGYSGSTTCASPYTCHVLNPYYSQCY

[3] = biological target: T3, TrCel7A (Trichoderma reesei, UniProt P62694, E229Q); test: intrinsic protein fluorescence quenching titration; assay type: binding
T3 sequence (P62694 18-513 E229Q): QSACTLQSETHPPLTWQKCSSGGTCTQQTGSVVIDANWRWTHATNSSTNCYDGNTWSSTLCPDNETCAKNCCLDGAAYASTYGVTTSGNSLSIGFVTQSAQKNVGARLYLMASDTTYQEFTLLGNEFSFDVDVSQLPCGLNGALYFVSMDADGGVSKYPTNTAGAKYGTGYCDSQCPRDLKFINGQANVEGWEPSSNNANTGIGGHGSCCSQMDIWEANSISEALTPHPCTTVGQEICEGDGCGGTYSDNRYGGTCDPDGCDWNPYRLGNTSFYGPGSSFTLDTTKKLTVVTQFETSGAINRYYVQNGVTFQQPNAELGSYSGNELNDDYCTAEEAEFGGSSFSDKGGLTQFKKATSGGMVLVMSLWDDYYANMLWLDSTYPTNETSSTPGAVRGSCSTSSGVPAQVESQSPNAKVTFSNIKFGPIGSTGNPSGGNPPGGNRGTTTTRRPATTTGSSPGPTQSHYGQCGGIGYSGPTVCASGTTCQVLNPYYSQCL

[4] = biological target: T1, TrCel7A; test: inhibition of MUC hydrolysis, fluorometric; assay type: biochemical
[5] = biological target: T1, TrCel7A; test: intrinsic protein fluorescence quenching titration; assay type: binding
[6] = biological target: T4, TrCel7A (Trichoderma reesei, UniProt P62694, D231N); test: intrinsic protein fluorescence quenching titration; assay type: binding
T4 sequence (P62694 18-513 D231N): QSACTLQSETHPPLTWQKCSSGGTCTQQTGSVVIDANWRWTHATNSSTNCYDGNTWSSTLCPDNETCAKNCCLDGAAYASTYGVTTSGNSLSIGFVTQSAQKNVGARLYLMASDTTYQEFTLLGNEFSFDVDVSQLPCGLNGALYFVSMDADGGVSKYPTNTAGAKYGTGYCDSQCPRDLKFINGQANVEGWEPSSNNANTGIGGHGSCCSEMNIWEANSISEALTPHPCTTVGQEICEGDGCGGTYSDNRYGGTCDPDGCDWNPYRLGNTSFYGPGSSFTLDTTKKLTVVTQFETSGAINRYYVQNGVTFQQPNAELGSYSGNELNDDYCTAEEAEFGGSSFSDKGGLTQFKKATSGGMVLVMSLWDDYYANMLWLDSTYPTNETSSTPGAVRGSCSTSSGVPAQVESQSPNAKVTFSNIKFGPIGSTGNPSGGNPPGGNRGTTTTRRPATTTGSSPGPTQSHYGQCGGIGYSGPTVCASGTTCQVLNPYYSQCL

[7] = biological target: T5, TrCel7A (Trichoderma reesei, UniProt P62694, E234Q); test: intrinsic protein fluorescence quenching titration; assay type: binding
T5 sequence (P62694 18-513 E234Q): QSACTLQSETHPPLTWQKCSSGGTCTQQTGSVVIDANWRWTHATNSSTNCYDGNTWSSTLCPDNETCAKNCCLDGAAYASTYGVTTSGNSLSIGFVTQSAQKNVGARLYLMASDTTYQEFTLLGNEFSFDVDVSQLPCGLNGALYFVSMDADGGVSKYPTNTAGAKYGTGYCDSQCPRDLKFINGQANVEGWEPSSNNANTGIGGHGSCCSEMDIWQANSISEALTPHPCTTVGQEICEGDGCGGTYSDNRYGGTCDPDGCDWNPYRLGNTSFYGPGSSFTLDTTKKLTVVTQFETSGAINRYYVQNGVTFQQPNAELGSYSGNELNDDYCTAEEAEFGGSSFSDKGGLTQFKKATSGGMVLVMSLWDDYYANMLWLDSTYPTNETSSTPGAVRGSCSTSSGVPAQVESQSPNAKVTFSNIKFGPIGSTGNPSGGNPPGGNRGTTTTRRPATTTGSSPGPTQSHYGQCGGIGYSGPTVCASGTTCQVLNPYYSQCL

[8] = biological target: T2, PcCel7D; test: intrinsic protein fluorescence quenching titration; assay type: binding
[9] = substrate: Cc1cc(=O)oc2cc(O[C@@H]3O[C@H](CO)[C@@H](O[C@@H]4O[C@H](CO)[C@@H](O)[C@H](O)[C@H]4O)[C@H](O)[C@H]3O)ccc12; test: purified protein; conditions: 50 mM sodium acetate, pH 5.0, 25 °C
[10] = substrate: O=[N+]([O-])c1ccccc1O[C@@H]1O[C@H](CO)[C@@H](O[C@@H]2O[C@H](CO)[C@@H](O)[C@H](O)[C@H]2O)[C@H](O)[C@H]1O; test: purified protein; conditions: 50 mM sodium acetate, pH 5.0, 25 °C
[11] = substrate: O=[N+]([O-])c1ccc(O[C@@H]2O[C@H](CO)[C@@H](O[C@@H]3O[C@H](CO)[C@@H](O)[C@H](O)[C@H]3O)[C@H](O)[C@H]2O)cc1; test: purified protein; conditions: 50 mM sodium acetate, pH 5.0, 25 °C
[12] = substrate: [H][C@@]1(O[C@H]2[C@H](O)[C@@H](O)[C@H](Oc3ccc([N+](=O)[O-])cc3)O[C@@H]2CO)O[C@H](CO)[C@H](O)[C@H](O)[C@H]1O; test: purified protein; conditions: 50 mM sodium acetate, pH 5.0, 25 °C

Ki [1]: 180 ± 16 µM
Ki [2]: 183 ± 16 µM
Molecule: OC[C@H]1O[C@@H](O[C@H]2[C@H](O)[C@@H](O)C(O)O[C@@H]2CO)[C@H](O)[C@@H](O)[C@H]1O (some centres unmarked) [lactose]

Kd [3]: 4.7 ± 0.4 µM
Ki [4]: 5.6 ± 0.5 µM
Kd [5]: 7.4 ± 0.4 µM
Kd [6]: 7.1 ± 0.7 µM
Kd [7]: 3.9 ± 0.4 µM
Kd [8]: 110 ± 10 µM
Molecule: O=[N+]([O-])c1ccccc1O[C@@H]1O[C@H](CO)[C@@H](O[C@@H]2O[C@H](CO)[C@@H](O)[C@H](O)[C@H]2O)[C@H](O)[C@H]1O [oNPC, o-nitrophenyl-β-D-cellobioside]

B1: PcCel7D (Phanerodontia chrysosporium) (protein)
chain: QQAGTNTAENHPQLQSQQCTTSGGCKPLSTKVVLDSNWRWVHSTSGYTNCYTGNEWDTSLCPDGKTCAANCALDGADYSGTYGITSTGTALTLKFVTGSNVGSRVYLMADDTHYQLLKLLNQEFTFDVDMSNLPCGLNGALYLSAMDADGGMSKYPGNKAGAKYGTGYCDSQCPKDIKFINGEANVGNWTETGSNTGTGSYGTCCSEMDIWEANNDAAAFTPHPCTTTGQTRCSGDDCARNTGLCDGDGCDFNSFRMGDKTFLGKGMTVDTSKPFTVVTQFLTNDNTSTGTLSEIRRIYIQNGKVIQNSVANIPGVDPVNSITDNFCAQQKTAFGDTNWFAQKGGLKQMGEALGNGMVLALSIWDDHAANMLWLDSDYPTDKDPSAPGVARGTCATTSGVPSDVESQVPNSQVVFSNIKFGDIGSTFSGTSSPNPPGGSTTSSPVTTSPTPPPTGPTVPQWGQCGGIGYSGSTTCASPYTCHVLNPYYSQCY
Km [9]: 210 ± 20 µM
kcat [9]: 0.22 ± 0.01 s⁻¹
kcat/Km [9]: 1050 M⁻¹ s⁻¹
Km [10]: 3200 ± 100 µM
kcat [10]: 0.015 ± 0.002 s⁻¹
kcat/Km [10]: 4.6 M⁻¹ s⁻¹
Km [11]: 1300 ± 160 µM
kcat [11]: 0.046 ± 0.0021 s⁻¹
kcat/Km [11]: 35 M⁻¹ s⁻¹
Km [12]: 5500 ± 400 µM
kcat [12]: 0.17 ± 0.01 s⁻¹
kcat/Km [12]: 31 M⁻¹ s⁻¹

B2: TrCel7A (Trichoderma reesei) (protein)
chain: QSACTLQSETHPPLTWQKCSSGGTCTQQTGSVVIDANWRWTHATNSSTNCYDGNTWSSTLCPDNETCAKNCCLDGAAYASTYGVTTSGNSLSIGFVTQSAQKNVGARLYLMASDTTYQEFTLLGNEFSFDVDVSQLPCGLNGALYFVSMDADGGVSKYPTNTAGAKYGTGYCDSQCPRDLKFINGQANVEGWEPSSNNANTGIGGHGSCCSEMDIWEANSISEALTPHPCTTVGQEICEGDGCGGTYSDNRYGGTCDPDGCDWNPYRLGNTSFYGPGSSFTLDTTKKLTVVTQFETSGAINRYYVQNGVTFQQPNAELGSYSGNELNDDYCTAEEAEFGGSSFSDKGGLTQFKKATSGGMVLVMSLWDDYYANMLWLDSTYPTNETSSTPGAVRGSCSTSSGVPAQVESQSPNAKVTFSNIKFGPIGSTGNPSGGNPPGGNRGTTTTRRPATTTGSSPGPTQSHYGQCGGIGYSGPTVCASGTTCQVLNPYYSQCL
Km [9]: 12 ± 1 µM
kcat [9]: 0.013 ± 0.001 s⁻¹
kcat/Km [9]: 1080 M⁻¹ s⁻¹
